{"source": "paper doi:10.1101/2020.10.23.352708", "experiment_in_all_cases": "flow cytometry on cells", "key": {"CXCR4 V112L (human)": {"biological_target": "CXCR4 V112L (human) (UniProt P61073)"}, "CXCR4 L41A (human)": {"biological_target": "CXCR4 L41A (human) (UniProt P61073)"}, "CXCR4 D97E (human)": {"biological_target": "CXCR4 D97E (human) (UniProt P61073)"}}, "data": [{"substance": "Endogenous Peptide Inhibitor of CXCR4 (EPI-X4)", "values": [{"measurement": "fold increase of the IC50 against wild-type CXCR4", "setting": "CXCR4 V112L (human)", "value": 6, "unit": "fold"}, {"measurement": "fold increase of the IC50 against wild-type CXCR4", "setting": "CXCR4 L41A (human)", "value": 20, "unit": "fold"}, {"measurement": "fold reduction of the binding affinity against wild-type CXCR4", "setting": "CXCR4 D97E (human)", "value": 20, "unit": "fold"}]}]}
